{"source": "paper PMC6057844", "about": "(Biochemical and biophysical research communications, 2018)", "target": "the molecule itself"}
{"protein": "Drp1 in HD mouse striatal cells (natural protein, UniProt Q8K1M6 1-736, looked up) MEALIPVINKLQDVFNTVGADIIQLPQIVVVGTQSSGKSSVLESLVGRDLLPRGTGVVTRRPLILQLVHVSPEDKRKTTGEENGVEAEEWGKFLHTKNKLYTDFDEIRQEIENETERISGNNKGVSPEPIHLKVFSPNVVNLTLVDLPGMTKVPVGDQPKDIELQIRELILRFISNPNSIILAVTAANTDMATSEALKISREVDPDGRRTLAVITKLDLMDAGTDAMDVLMGRVIPVKLGIIGVVNRSQLDINNKKSVTDSIRDEYAFLQKKYPSLANRNGTKYLARTLNRLLMHHIRDCLPELKTRINVLAAQYQSLLNSYGEPVDDKSATLLQLITKFATEYCNTIEGTAKYIETSELCGGARICYIFHETFGRTLESVDPLGGLNTIDILTAIRNATGPRPALFVPEVSFELLVKRQIKRLEEPSLRCVELVHEEMQRIIQHCSNYSTQELLRFPKLHDAIVEVVTCLLRKRLPVTNEMVHNLVAIELAYINTKHPDFADACGLMNNNIEEQRRNRLARELPSAGSRDKSSKVPSALAPASQEPPPAASAEADGKLIQDNRRETKNVPSAGGGIGDGGQEPTTGNWRGMLKTSKAEELLAEEKSKPIPIMPASPQKGHAVNLLDVPVPVARKLSAREQRDCEVIERLIKSYFLIVRKNIQDSVPKAVMHFLVNHVKDTLQSELVGQLYKSSLLDDLLTESEDMAQRRKEAADMLKALQGASQIIAEIRETHLW", "values": [{"measurement": "stoichiometry N", "value": 4}]}
